Assay: protease stability score; higher = more stable; yeast display proteolysis, trypsin and chymotrypsin;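 note: log10 excess protease needed over predicted unfolded state with 0 meaning unfolded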

DDKKVRLARSWMQNVRENNEERLQKLIDPNAKVRIGNKVVNGDEEFRRQVKHRKEHMRLDVEIESMTFQGDHVSATYVFRQNVNGTPYSDRVEVHIKMENGRIKHIDARVPEEKLRELSS
protease stability score: -0.106

ERDSLKHVAREMEKNNFDEMLHNADKDVEIHYGNRSVHGHKRAQSFWERLKSRVDHISFKSYSINNGRIVMSFKVVIDGQDIEVHISIEVENGTIKHVQFQATSEEIEKLLEKLMD
protease stability score: 1.36

DEEAHKLMEEMMRAWKHGDSQRVADLVDPNARVKIGDKEVRGHEQIKELVHTLKTEMRIEYQSISAENHGNHVEVDARLSVESNGKPEQVDFKLRLVVQNGRIREISADYKP
protease stability score: -0.035

DESLMKVAQEVHDAWNQGDPTKLQENFDKDAEIQVGDKQIHGREDATRELDRKKKQQRFEVQVTSMTAQNGDVKVDARFHFKHNGRPDERRFKLTINAENGRIQEASIDQTK
protease stability score: -0.151

EKENVQSWLEAWNALRQGDEKRVEQLVDPNARMQVGDKKVEGMTRHVHKEVRKMKEIRVELDLKTVDTQGDHAVVKFRESRNHNGQPREQDVVVRMRAHNGRVQEVNVHEVS
protease stability score: 0.028

DEDKEQELAHHIISIIQTGNPDSFMNMADPNAKVNIGDTRLRGREQIVHFYREQFRQADNREVKDVRAHNGRITIDAVRNINGRNERYVVDIQIENGKATEINVRHT
protease stability score: 0.045

DEDALRKFKEFLEIKREGDERRLLELFDENVKIVVGDTELEGMTEAARDITRKRKEMRVEQRYDRFHVQGEHIRARARFTVKFNGRPHTNENTFRVVLRNGHYKSYELKIDPDELRKLDS
protease stability score: -0.083

DEKKVQEVAKDALKVDLQGDVEKMKKLGKPDVTFQLGDQEVHGPDDLKKYYDKVKRLGEEIHVKKVKVEGDKMQAHYELRVAGKQATVTVEVTVKDEKVEEARAEMTEKYKKALEEG
protease stability score: -0.154

DEQNEAKRLVEKLQSIVKSGDEEEWMKQFDENVKVSVGDKTVHGREDMVKQYQQHVKRADTMELQVNEYSVHNGRVSIRYKMRVDVNGQRHTTEAHVDFRNVNGRFKAQSVNQK
protease stability score: 0

DDEEQRKLAKEFIDLLRTGDEEHIAHQADKDVTFQIGDKRYTGQEELLKYMKHLVDRVDHIEVEEVDVRGNKVNVTVVVRYNGKRVTLNFDLEFSNGRLIHMSVDPDQQRQLDG
protease stability score: 1.18

DEKRVKEMVKKIFEVIKKGDEDKIVKQLMPNVEYHYIDQKFEGEDAARHIVKIVKHIGAEDREKKHEVNGDTMTVVFVYHNGDKTIQTKATVTYEGDVVKKAEVRLDDEVKKLARKG
protease stability score: 0.088

DEKDKARRMAETIDKLAERNDFEELAKNADPDAKVTVGDKTFHGEENLVKHLQEERKRIDQVRIEVKDVKVQGDEIRINAKYEATHNGRRVDQQVRVIVEVHNGRLVISEMQYE
protease stability score: 0.979

DEEQVREAMEIVKHGDPDKFRKQADKDVRLTIGDTEYHGREDVMTVLVSFLRTVDHLNIKSVDVRGDKAVINADFNYNGKEININIHLEFHNGRLKSVQIQATNREDQKDLKRIIK
protease stability score: 1.28

DKEALDEIEKAARENDWEKLAKMADPNVTATIGNYRVHGRSQFEKWARRVRQEVDHIEVKSIDVHGEKARVNYVIVFNGHNVTAQVQIEAHNGHITYMEVDYTDEDQVRHVKDMLS
protease stability score: 1.6

DDDLRRRLHEFWENMQEGDEKRLREMADPNVRFEVGDKSIHGREEFARKVKELHEQQRFSVRIDRMDNQGNKVDITFHVTQKHNGRPNRYTARVTITAHNGKIKSVSVDISQ
protease stability score: 0.391

DEKALRVAEEAIKAVQTGDPKKFATMADENARVRIGDKEVKGRENQVQLMKDWKHHMRWEQDVKSVTANGDKVEVKFEQVSETNGKPDHDTWNVHFTAQNGEVKSMTMTSNK
protease stability score: -0.504

DEEKIKQLLQKMIQYYVSGNKDHLKQLGKDDVQLHAADQTYHGLDQLLKVAEQFKKYGVKLEVKDVKVDGNTIHADVEVTMGGTQWTFKVTAEADGGKVDKVQFDVSEEAKKRIQKG
protease stability score: 0.959

DPTELLKYAEKLLEALMKGDSELATKMGKPDVEVQTGDQKYKGQDDLRKVVKKIKDYGVENKIDETEKDGGQVKVKIVARIGDREYTFTWVAEAENGKVRKVQLDIPEDLEKDLKHG
protease stability score: 0.739

DEERKKRVEEALRQEQQGNEEDYSELMDENVKITIGDKTIRGSKEAVRHFKEKMTQMRIELRDYRIQVHGNKVSVDLKYVNDHDGQPRHQKATATMDMTNGRVQSREVDNKP
protease stability score: 0.186

DEHAQKLLEKEKDALERNNPDHFRDMVDKDARLRVGNKVIHGREQVSEDVERKRDEMRYRFEIKHVQVHNGQIDADVVQVVNVNGHPVRNKYRITVNVTNGRAKQVTVRIDEDTLRKMDR
protease stability score: -0.027

DEHEKMKKHMTEWRSAFKRGDPDTVRKLADKDVDVEVGDKVLHGREQVANHVVDLARTVDHVDIRIETMEVNGDHFVLVMSAVFDVNGKRDERKFVLVAKLHNGTIKVKNMKRS
protease stability score: 0.07

DDEDAHRVADDANKALERGDERRLKELFDKDVRLHYGDKHVRGREEFEDWVQEWLRTVDKIRVEDYKVHDGVVRIRIRVDINGKDVSQTIDLDVKNGTIVNVVIKDN
protease stability score: 1.43

DRDDFRRVIHEVQKALKHGDREQLRRLLDENAKVKVGDKEYQGDERAVKVMTTIANKADRMEYKDIHLHGDSVYINVVLNHNGKKDTVVWVIAVNNGKVQFFAQETR
protease stability score: 1.01

DENKKAEKVARDYIKNAQTNNSESLKKLADPNVEVVIGDTTYTGTKDFVKFVQEIVRQADHISLNVRSVEVQGDKADVVAEVRVDFNGNQRRQDIRFHAQLQGDKVKLKMIQYK
protease stability score: 1.06

DKEVNNMAEKFLDAFRTNDPDQVRRLADENASFRVGDKVLTGMTEAVRELHRQVKQMEVRITDVKNSVQGDQANLDIHFDVHDNGKPDTRRMVLVVNVENGRIREVEVNQDD
protease stability score: 0.4

DEEKEREMFKEFLNAFKSGDPDKLRKRMRQNVTLVYGDKSLHGRERAAKWFSELVKRVDHIEIESVKTDENHFDADVHLNVNGQNVIVHIRAKVENGRIVKVQYEYRDESQRRKLEK
protease stability score: 1.18

DEEVQNLFEELVEAVKTGDEDRLRENVDPNATFEYGDKTFHGMDTFVKTVKKIRESMRLTLEVKSYEVQGDKVKAEVDAKQDHNGQPVSYTMDLHIDARNGKVKRIVRQVPEEDKTRIER
protease stability score: -0.032

DEKEEAHRALTAMHKMMTGDFKEVMKNADENVHVEIGDKEFHGREDLHDFAREIQERVDDFRVSSVTAKGDSAVLNVRQDYNGRNERVRLEVQVSNGKIKHVRFQTG
protease stability score: -0.341

DEHLLKEAEKHLKQIERGNPDEAVKMVDPNAKFHIGDKTIHGREHWREWVERQVKDQRFKIRLDDMEDHNGKLVLEVTATYDINGKPVTLTVRWEFDIHNGRAQSVRVQVDPKQQEDLKR
protease stability score: 0.535

DSHLEHKAHEWVKAVNENDPDRLVQLMDKDVKIDVGDKKFSGRENYATEVKKEQDEARVEWKDVKLSADNGKLELQADVVRRHNGQPQRWKVENIYTDKNGVAKYLTNKSKP
protease stability score: -0.423

DDEVAKTIVKNWKTGDPDRLNEMFDPNARIRIGNQDVHGHEEVKKMLHKFFTAIDSIDIKRVSVHNGRIDIDVRAHFNGRSFRFVLHIVVEDGRVKHMEMKVTDPDSQRELEKHQK
protease stability score: 1.35

DEEQVEHMRRIVQEGDFDELKDNADPNARVQVGDKRYHGREQVQHVMKNFRDKADHVEISSIKQDEDHVSAEMHVEVNGERFVIRIHFVVHNGRLEQINIQVTSERDQKKLKKMLD
protease stability score: 0.185

ESELDKQAEQIVRVLRTGDPEKVADNAPEDAELIIGDKTYHGREQIRDWVHTVNKQMRIQWDEFDVKVKGDKAKVEADVVYDVNGTPVEDKIVLIFVIHNGRVHAVHFDFDPEVWRSMES
protease stability score: 0.569

DEENSRILKELLRAIRRGDEERAKELVDPNAKFQVGNKNVHGRDHWAQELRKEKEKIRFDMHIKHVKVDNGKIKVDLRVQVDVDGRPVTNRVKLTVELHNGRLTHLRVEMDEDQERKLKK
protease stability score: 0.366

DNTHLRMMEQLLKNRSTGDERKVRENADKHVKIDVGDKRLHGREHLQKQQESERTQADVEIQVQTIHDHNGQIVMQFEITVNVNGRPERDTWTLVAEADNGRLKKLSLDLDPDKLKTMES
protease stability score: 0.327

DHDALRHATEILRARKTGDDKRIRELVDPNAHVVIGDKSLHGREQIVKFVTKENEEMSIQYRHVSTETRNGRVDIRMDADMRKNGTPDRVRQEMKAEFHNGRLQRMSVHDDK
protease stability score: -0.331

SEEELRKVVEKLLTYVIEGNPDDVKKYISPNVQVRYFDKTVQGRDEVMKFLRRAKKHGYRLQAKHVQLEGDRATTELDYQAGDQEATVRVEATVNGGRLEKLEVRDSPKVKKVLKDG
protease stability score: 1.56

EDENRSNIEDMIRAWNQNNPDEWRELADPNVKVQIGEKSIRGREEIAKDLKQMHKEIEVHFNLKRVRVQGDKAEVEMEFSNNHNGKPRSDNVVYDVLVDNGRIKSVKQNQVS
protease stability score: -0.141

DEEVHKAITHYIEALHKGDPDRAANQMDENVRIEIGDKSITGREHAKHHLERLFKQMEFRITVDRVEVHNGTATAEIHWSSDRNGKPDSNTRRMTAEVHNGKIKQIVFKSDS
protease stability score: 1.02

DEHIEEVATKHLKAQHTNDPKQFRDLADKDVEVEVGDKNIHGREQNANEQKRRRDEWEFEMKIDHISAHDGRAILRVKINYVVNGKPINVDAVIRLHAHNGTIKELSVQVDPDQMREVKS
protease stability score: 1

DEELKKVVDRMMKAITEGNPDKVRHLMDKDVKVDIGDKRIQGNEQNARDNEKSQNHLEESLDVKRVDNKGDKATVHLTVHVNHNGKPETFKLDIHVQAHNGKVKNMNFQKRP
protease stability score: -0.076

DEHAKRVLHEWLRAIQTGDPDKAMRLADKDARIRVGDKVISGREQLHKWVETLKKHIKVQIEDFNIEVHGEELELNIVATLNDNGEPQRSRWVVTVIIRNGEMKSLTQRDDS
protease stability score: 0.009

DEEKQAKTALKRYKDAIKDGDEELAKRLFDKHARIEIGDKEVHGREEIARRIREMVERADHIDIKLQSMRVRGDHIRLELTMTVNINGKKEKSRFQFVMQRRGDEVYVTSMHQT
protease stability score: -0.003

DEEKNDDTARKFLEVFQEGNEDDIRRLADEDVTVEIGDSTYHGREQALTAVREWSKTVDHYSIESIHADNGRAHLHAKVVVNGKTVNLDLVVDVRNGKVKKVMIDPDRLRELKK
protease stability score: 0.921

DEEDNTKLKRIMQTGDFETLVHQADENAEFHYGDKTYHGNDQAHKAVENQKKQFDKIEVRSIETKNGHVHVEFRIEVNGRELVLTAFANVHNGRVKNATVQARSEEDRKSLKELDR
protease stability score: 0.044

DSEERHDFAHKVMEVFQQGDPDQMRDMADPNVRLHVGEKNVTGRDRVRTALTEFRQRVDHVQVDHVHVTGDKIVIHATVEINGRRRRVIIVARVRNGRIHEIEVDLK
protease stability score: 1.61

DEEKVFQVLVKMVQYYVSGDAEKVKKLGKDDAKVKAVDVEYRGLEQVEKAVEQFKRYGVKLQLTDHKEDGDRVDAKLVLHLGGTTWEFRVTVRADGGKVDELKVEVSDEVMKRIQDG
protease stability score: 0.471

DHNDHARRLFEQWVQAIEHNDPDQIRKNLPPNVKVTIGDKTISGRENVVRTVKRELHRVDHIRIQLDHVEVQGDKIVLRANVRQDHNGQNRHFTLRLVANTFNGREQFIDIQLN
protease stability score: -0.121

DDHANRVVEDVMQAWQDNDEDRLKELLDPNVKVEYGDRRVEGRDEAVREWVEQFRQSTIEYEIKSVNNSGDKVQINMDMRFESNGHPDENRVRLEASAHNGKIRELNFHTDQ
protease stability score: 0.589

DDKHKVEQLLRRADDALRTNDERKYIEMVDKDVRITVGDKQIHGKDEAVKFLRTLHNTYDHVQIRVESIENDGEKFKVIVQITAKHNGKETSHTLSFDAQRHNGQVRVKHASMG
protease stability score: 1.21

Source: the NTF2 design screens of Basanta et al. (2020)
